Experimental data reported in patent US20180155451A1 (published 2018).

T1: FcgRIIb (human, UniProt P31994 43-217)
T1 construct: extracellular domain; also called FcγRIIb; CD32B; not shown: C-terminal His tag
T1 sequence (looked up): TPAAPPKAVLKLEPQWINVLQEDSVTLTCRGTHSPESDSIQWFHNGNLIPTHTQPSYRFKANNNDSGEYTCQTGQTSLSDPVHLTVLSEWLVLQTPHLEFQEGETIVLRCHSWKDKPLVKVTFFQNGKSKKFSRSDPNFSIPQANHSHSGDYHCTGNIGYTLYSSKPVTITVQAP

T2: FcgRIIaR (human, UniProt P12318 34-217)
T2 construct: extracellular domain; R131 allotype; also called FcγRIIa R; FcgRIIa type R; not shown: C-terminal His tag
T2 sequence (looked up): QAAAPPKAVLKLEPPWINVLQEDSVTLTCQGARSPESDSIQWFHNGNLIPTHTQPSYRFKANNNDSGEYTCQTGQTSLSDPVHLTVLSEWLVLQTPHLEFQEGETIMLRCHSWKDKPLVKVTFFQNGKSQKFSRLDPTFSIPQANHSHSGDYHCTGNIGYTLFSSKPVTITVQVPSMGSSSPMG

T3: FcgRIIaH (human, UniProt P12318 34-217)
T3 construct: extracellular domain; H131 allotype; also called FcγRIIa H; FcgRIIa type H; not shown: C-terminal His tag
T3 sequence (looked up): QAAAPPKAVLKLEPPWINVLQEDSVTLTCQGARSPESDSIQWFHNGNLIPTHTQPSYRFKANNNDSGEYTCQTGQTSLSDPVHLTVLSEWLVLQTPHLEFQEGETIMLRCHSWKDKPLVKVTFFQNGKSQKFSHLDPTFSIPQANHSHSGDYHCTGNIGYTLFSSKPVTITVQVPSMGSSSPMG


Key:
FcgRIIIaF [1] = target: T4, FcgRIIIaF (human, UniProt P08637 17-208); test: SPR (Biacore), antibody captured on chip, FcgR as analyte
T4 construct: extracellular domain; F158 allotype; also called FcγRIIIa F; not shown: C-terminal His tag
T4 sequence (P08637 17-208): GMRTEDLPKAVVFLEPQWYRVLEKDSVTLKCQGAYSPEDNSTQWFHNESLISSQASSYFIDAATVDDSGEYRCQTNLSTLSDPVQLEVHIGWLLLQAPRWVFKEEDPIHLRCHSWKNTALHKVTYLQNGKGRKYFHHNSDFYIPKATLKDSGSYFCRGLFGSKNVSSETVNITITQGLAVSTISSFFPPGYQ
Description: (§1) The variants described above were assessed for their binding to FcγR according to the method described in Reference Example 8.
(§2) Analysis of interaction between obj ective antibody and the FcγR was carried out using Biacore T100 (GE Healthcare), Biacore T200, Biacore A100, and Biacore 4000. HBS-EP+ (GE Healthcare) was used as the running buffer, and the measurement temperature was set to 25° C. Chips produced by immobilizing the antigen peptide by the amine coupling method to a Series S sensor Chip CM5 (GE Healthcare), chips produced by allowing preliminarily biotinylated antigen peptides to interact with and immobilize onto a Series S Sensor Chip SA (certified) (GE Healthcare), chips produced by immobilizing Protein L (ACTIGEN, BioVision) to Series S Sencor Chip CM5 (GE Healthcare), or chips produced by immobilizing Protein A/G (Thermo Scientific) to Series S Sencor Chip CM5 (GE Healthcare) were used. Antibodies of interest were captured onto these chips, and allowed to interact to each FcγR diluted with running buffer. To regenerate and repeatedly use the chip, the antibodies captured onto the chip were washed off by reacting 10 mM glycine-HCl, pH 1.5.

FcgRIIb [2] = target: T1, FcgRIIb; test: as above
Description: as §1, §2

FcgRIIIaV [3] = target: T5, FcgRIIIaV (human, UniProt P08637 17-208); test: as above
T5 construct: extracellular domain; V158 allotype; also called FcγRIIIa V; not shown: C-terminal His tag
T5 sequence (P08637 17-208 F176V limits assumed): as the sequence (P08637 17-208) above, with F160V counted along it
Description: as §1, §2

FcgRIIaR [4] = target: T2, FcgRIIaR; test: as above
Description: as §1, §2

FcgRIa = target: T6, FcgRIa (human, UniProt P12314 16-292); test: as above
T6 construct: extracellular domain; also called FcγRIa; FcγRI; not shown: C-terminal His tag
T6 sequence (P12314 16-292): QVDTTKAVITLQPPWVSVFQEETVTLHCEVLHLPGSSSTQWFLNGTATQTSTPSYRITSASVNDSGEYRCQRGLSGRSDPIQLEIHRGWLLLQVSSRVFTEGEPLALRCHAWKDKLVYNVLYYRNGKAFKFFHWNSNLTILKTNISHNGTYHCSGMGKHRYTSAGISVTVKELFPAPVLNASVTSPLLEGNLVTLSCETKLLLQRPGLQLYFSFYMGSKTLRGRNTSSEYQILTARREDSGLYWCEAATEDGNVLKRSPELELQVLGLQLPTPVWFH
Description: as §1, §2

FcgRIIaH [5] = target: T3, FcgRIIaH; test: as above
Description: as §1, §2

FcgRIIIaF [6] = target: T4, FcgRIIIaF; test: SPR (Biacore); KD of H240-Kn120/H240-Hl068/L73-k0 divided by KD of the sample
Description: as §1, §2

FcgRIIb [7] = target: T1, FcgRIIb; test: as above
Description: as §1, §2

FcgRIIIaV [8] = target: T5, FcgRIIIaV; test: as above
Description: as §1, §2

FcgRIIaR [9] = target: T2, FcgRIIaR; test: as above
Description: as §1, §2

FcgRIIaH [10] = target: T3, FcgRIIaH; test: as above
Description: as §1, §2

Kd (FcgRIIIaF [1]) [nM] | Kd (FcgRIIb [2]) [nM] | Kd (FcgRIIIaV [3]) [nM] | Kd (FcgRIIaR [4]) [nM] | Kd (FcgRIa) [nM] | Kd (FcgRIIaH [5]) [nM] | Relative KD (FcgRIIIaF [6]) | Relative KD (FcgRIIb [7]) | Relative KD (FcgRIIIaV [8]) | Relative KD (FcgRIIaR [9]) | Relative KD (FcgRIIaH [10]) | Binder
39 | 400 | 18 | 18 | 0.46 | 47 | 0.1 | 0.4 | 0 | 1.1 | 0.9 | H240-Kn179/H240-Hl089/L73-k0 (antibody, human IgG1, kappa, Heterodimerized anti-epiregulin antibody; E294R in one chain, G236T in the other) heavy 1: QDQLVQSGAEVKKPGASVKVSCKASGFNIKDTYIQWVRQAPGQGLEWMGRIDPLRKQTKYREKFEGRVTITADTSTNTAYMELSSLRSEDTAVYYCVRSGREFDYWGQGTLVTVSSASTKGPSVFPLAPSSKSTSGGTAALGCLVKDYFPEPVTVSWNSGALTSGVHTFPAVLQSSGLYSLSSVVTVPSSSLGTQTYICNVNHKPSNTKVDKKVEPKSCDKTHTCPPCPAPEYYWGPMVFLFPPKPKDTLMISRTPEVTCVVVDVSDEDPEVKFNWYVDGVEVHNAKTKPREKQYNATYRVVSVLTVLHQDWLNGKEYKCKVSNKDLPAPIEKTISKAKGQPREPQVCTLPPSRDELTKNQVSLWCLVKGFYPSDIAVEWESNGQPENNYKTTPPVLDSDGSFFLYSKLTVDKSRWQQGNVFSCSVMHEALHNHYTQKSLSLSP heavy 2: QDQLVQSGAEVKKPGASVKVSCKASGFNIKDTYIQWVRQAPGQGLEWMGRIDPLRKQTKYREKFEGRVTITADTSTNTAYMELSSLRSEDTAVYYCVRSGREFDYWGQGTLVTVSSASTKGPSVFPLAPSSKSTSGGTAALGCLVKDYFPEPVTVSWNSGALTSGVHTFPAVLQSSGLYSLSSVVTVPSSSLGTQTYICNVNHKPSNTKVDKKVEPKSCDKTHTCPPCPAPELLTGPSVFLFPPKPKDTLMISRTPEVTCVVVDVSHEEPEVKFNWYVDGVEVHNAKTKPREEQYNSTYRVVSVLTVLHQDWLNGKEYKCKVSNDALPKPIEETISKAKGQPREPQVYTLPPSRCELTKNQVSLSCAVKGFYPSDIAVEWESNGQPENNYKTTPPVLDSDGSFFLVSKLTVDKSRWQQGNVFSCSVMHEALHNHYTQKSLSLSP light: DIQMTQSPSSLSASVGDRVTITCRASQDIHKYIAWYQQKPGQAPRLLIQYTSTLQPGVPSRFSGSGSGTDYTFTISSLQPEDIATYYCLQYEQLRTFGGGTKVEIKRTVAAPSVFIFPPSDEQLKSGTASVVCLLNNFYPREAKVQWKVDNALQSGNSQESVTEQDSKDSTYSLSSTLTLSKADYEKHKVYACEVTHQGLSSPVTKSFNRGEC
24 | 380 | 14 | 16 | 0.27 | 38 | 0.1 | 0.4 | 0 | 1.3 | 1.1 | H240-Kn180/H240-Hl089/L73-k0 (antibody, human IgG1, kappa, Heterodimerized anti-epiregulin antibody; E294K in one chain, G236T in the other) heavy 1: QDQLVQSGAEVKKPGASVKVSCKASGFNIKDTYIQWVRQAPGQGLEWMGRIDPLRKQTKYREKFEGRVTITADTSTNTAYMELSSLRSEDTAVYYCVRSGREFDYWGQGTLVTVSSASTKGPSVFPLAPSSKSTSGGTAALGCLVKDYFPEPVTVSWNSGALTSGVHTFPAVLQSSGLYSLSSVVTVPSSSLGTQTYICNVNHKPSNTKVDKKVEPKSCDKTHTCPPCPAPEYYWGPMVFLFPPKPKDTLMISRTPEVTCVVVDVSDEDPEVKFNWYVDGVEVHNAKTKPRERQYNATYRVVSVLTVLHQDWLNGKEYKCKVSNKDLPAPIEKTISKAKGQPREPQVCTLPPSRDELTKNQVSLWCLVKGFYPSDIAVEWESNGQPENNYKTTPPVLDSDGSFFLYSKLTVDKSRWQQGNVFSCSVMHEALHNHYTQKSLSLSP heavy 2: QDQLVQSGAEVKKPGASVKVSCKASGFNIKDTYIQWVRQAPGQGLEWMGRIDPLRKQTKYREKFEGRVTITADTSTNTAYMELSSLRSEDTAVYYCVRSGREFDYWGQGTLVTVSSASTKGPSVFPLAPSSKSTSGGTAALGCLVKDYFPEPVTVSWNSGALTSGVHTFPAVLQSSGLYSLSSVVTVPSSSLGTQTYICNVNHKPSNTKVDKKVEPKSCDKTHTCPPCPAPELLTGPSVFLFPPKPKDTLMISRTPEVTCVVVDVSHEEPEVKFNWYVDGVEVHNAKTKPREEQYNSTYRVVSVLTVLHQDWLNGKEYKCKVSNDALPKPIEETISKAKGQPREPQVYTLPPSRCELTKNQVSLSCAVKGFYPSDIAVEWESNGQPENNYKTTPPVLDSDGSFFLVSKLTVDKSRWQQGNVFSCSVMHEALHNHYTQKSLSLSP light: DIQMTQSPSSLSASVGDRVTITCRASQDIHKYIAWYQQKPGQAPRLLIQYTSTLQPGVPSRFSGSGSGTDYTFTISSLQPEDIATYYCLQYEQLRTFGGGTKVEIKRTVAAPSVFIFPPSDEQLKSGTASVVCLLNNFYPREAKVQWKVDNALQSGNSQESVTEQDSKDSTYSLSSTLTLSKADYEKHKVYACEVTHQGLSSPVTKSFNRGEC
